B1: INTS3 (parent)
chain: FHPIKETVVEEPVDITPYLDQLDE
B2: CCNC (parent)
chain: QSSHYLQWILDKQDLLKERQKDLK

Variants of: B1
Test: protein stability index of a GFP-peptide fusion (GPS, HEK-293T) (PSI 1-6); higher = more stable
Conditions: c terminus: a fixed tail appended
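Note: lentivirally expressed fusions sorted by FACS into six bins by GFP to DsRed ratio, PSI derived from sequencing read proportions per bin multiplied by bin number.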

First: E6L
Second: E6Q
The protein stability index of the first is lower: 1.9 for the first, 2.1 for the second.

Going from E6H to E6K, the protein stability index rises from 2.01 to 2.34.

Compared with E6F, E6G is higher in protein stability index: 1.53 for the first, 3.04 for the second.

Going from E6I to E6N, the protein stability index rises from 1.57 to 2.67.

Going from E6P to E6A, the protein stability index falls from 2.89 to 2.42.

First: E6C
Second: E6M
The protein stability index of the first is lower: 1.78 for the first, 2 for the second.

Going from E6D to I4T, the protein stability index rises from 3.77 to 3.9.

Going from I4D to I4E, the protein stability index falls from 4.08 to 4.06.

Going from I4K to I4M, the protein stability index rises from 3.08 to 4.2.

Going from I4G to I4V, the protein stability index falls from 4.25 to 3.82.

Going from I4L to I4R, the protein stability index falls from 3.85 to 3.17.

Compared with I4Y, I4W is higher in protein stability index: 2.77 for the first, 2.87 for the second.

First: I4Q
Second: I4F
The protein stability index of the first is higher: 3.83 for the first, 3.4 for the second.

Going from I4C to I4S, the protein stability index rises from 3.31 to 3.87.

Going from I4A to I4H, the protein stability index rises from 2.98 to 4.1.

First: I4N
Second: I4P
The protein stability index of the first is higher: 3.85 for the first, 2.96 for the second.

First: K5P
Second: K5Y
The protein stability index of the first is higher: 4.29 for the first, 2.83 for the second.

Going from K5D to K5L, the protein stability index falls from 4.86 to 3.87.

First: K5C
Second: K5T
The protein stability index of the first is lower: 3.99 for the first, 4.29 for the second.

First: K5V
Second: K5H
The protein stability index of the first is lower: 4.17 for the first, 4.67 for the second.

Compared with K5Q, K5E is higher in protein stability index: 3.35 for the first, 5.06 for the second.

First: K5W
Second: K5A
The protein stability index of the first is lower: 2.15 for the first, 4.47 for the second.

Compared with K5M, K5R is lower in protein stability index: 4.24 for the first, 3.9 for the second.

Going from K5F to K5S, the protein stability index rises from 3.73 to 4.99.

Compared with K5I, K5G is higher in protein stability index: 3.14 for the first, 4.4 for the second.

First: K5N
Second: P3D
The protein stability index of the first is higher: 4.8 for the first, 4.79 for the second.

Going from P3C to P3F, the protein stability index falls from 3.23 to 2.52.

Compared with P3G, P3Q is lower in protein stability index: 4.49 for the first, 3.78 for the second.

Compared with P3M, P3A is higher in protein stability index: 2.9 for the first, 3.82 for the second.

Compared with P3T, P3N is higher in protein stability index: 3.43 for the first, 4.63 for the second.

Going from P3L to P3H, the protein stability index rises from 3.14 to 3.56.

Going from P3E to P3I, the protein stability index falls from 5 to 2.66.

Going from P3Y to P3S, the protein stability index rises from 2.75 to 4.03.

Going from P3K to P3V, the protein stability index falls from 4.82 to 4.19.

Going from P3W to P3R, the protein stability index rises from 1.73 to 3.76.

Compared with F1M, F1Q is higher in protein stability index: 5.23 for the first, 5.65 for the second.

First: F1L
Second: F1H
The protein stability index of the first is lower: 5.28 for the first, 5.5 for the second.

Going from F1P to F1D, the protein stability index rises from 5.74 to 5.78.

First: F1Y
Second: F1S
The protein stability index of the first is lower: 3.3 for the first, 5.58 for the second.

Compared with F1R, F1E is higher in protein stability index: 5.18 for the first, 5.2 for the second.

Going from F1G to F1N, the protein stability index falls from 5.5 to 5.47.

Compared with F1A, F1W is lower in protein stability index: 5.42 for the first, 4.97 for the second.

First: F1C
Second: F1T
The protein stability index of the first is lower: 5.32 for the first, 5.54 for the second.

First: F1K
Second: F1V
The protein stability index of the first is higher: 5.66 for the first, 5.44 for the second.

Going from F1I to H2E, the protein stability index rises from 4.99 to 5.26.

First: H2C
Second: H2N
The protein stability index of the first is lower: 4.11 for the first, 5.18 for the second.

Going from H2M to H2Y, the protein stability index falls from 4.87 to 4.63.

First: H2W
Second: H2S
The protein stability index of the first is lower: 4.2 for the first, 5.47 for the second.

Going from H2I to H2F, the protein stability index rises from 3.71 to 4.86.

Going from H2D to H2A, the protein stability index falls from 5.42 to 4.34.

Going from H2R to H2P, the protein stability index rises from 4.81 to 5.03.

First: H2K
Second: H2V
The protein stability index of the first is higher: 5.24 for the first, 2.16 for the second.

Compared with H2G, H2L is lower in protein stability index: 5.35 for the first, 4.87 for the second.

Compared with H2Q, H2T is lower in protein stability index: 4.7 for the first, 4.62 for the second.

Variants of: B2
Test: as above
Conditions: c terminus: a fixed tail appended

Going from K21Y to K21W, the protein stability index falls from 2.69 to 2.3.

Compared with L23R, L23E is higher in protein stability index: 3.52 for the first, 3.81 for the second.

First: L23H
Second: L23W
The protein stability index of the first is higher: 3.31 for the first, 2.98 for the second.

L23M and L23C are the same in protein stability index: 3.31 for the first, 3.31 for the second.

Going from L23N to L23G, the protein stability index rises from 3.18 to 4.43.

Compared with L23D, L23T is lower in protein stability index: 4.22 for the first, 3.27 for the second.

Going from L23V to L23A, the protein stability index rises from 2.48 to 3.41.

First: L23P
Second: L23S
The protein stability index of the first is lower: 2.59 for the first, 3.54 for the second.

Compared with L23Q, L23K is lower in protein stability index: 3.83 for the first, 3.6 for the second.

Going from L23F to L23Y, the protein stability index falls from 2.82 to 1.85.

Compared with L23I, D22G is lower in protein stability index: 3.39 for the first, 2.6 for the second.

Compared with D22R, D22L is lower in protein stability index: 3.72 for the first, 2.08 for the second.

Compared with D22M, D22E is higher in protein stability index: 2.55 for the first, 3.19 for the second.

Going from D22N to D22F, the protein stability index falls from 2.9 to 2.67.

Going from D22V to D22Y, the protein stability index rises from 2.79 to 2.82.

First: D22S
Second: D22I
The protein stability index of the first is higher: 2.59 for the first, 2.48 for the second.

First: D22P
Second: D22W
The protein stability index of the first is higher: 2.6 for the first, 2.57 for the second.

Compared with D22K, D22H is higher in protein stability index: 2.18 for the first, 3.02 for the second.

First: D22C
Second: D22T
The protein stability index of the first is higher: 2.54 for the first, 2.31 for the second.

Compared with D22Q, D22A is higher in protein stability index: 2.1 for the first, 2.61 for the second.

Compared with K24I, K24H is higher in protein stability index: 2.21 for the first, 3.29 for the second.

Going from K24F to K24S, the protein stability index rises from 2.69 to 2.81.

First: K24L
Second: K24N
The protein stability index of the first is lower: 3.19 for the first, 3.46 for the second.

Going from K24E to K24Q, the protein stability index falls from 3.78 to 2.77.

First: K24G
Second: K24P
The protein stability index of the first is higher: 3.1 for the first, 2.4 for the second.

First: K24C
Second: K24D
The protein stability index of the first is lower: 2.29 for the first, 4.08 for the second.

Compared with K24T, K24V is lower in protein stability index: 2.96 for the first, 2.92 for the second.

Going from K24A to K24Y, the protein stability index falls from 2.66 to 2.17.

Compared with K24W, K24R is higher in protein stability index: 1.78 for the first, 2.57 for the second.

Variant K24M has a protein stability index of 2.57.
